This passage reports Km and K0.5 results from PMC11697783, “Structure/function of ATP sulfurylase domain of human 3′-phosphoadenosine 5′-phosphosulfate synthase (hPAPSS)” (Biochemistry and Biophysics Reports, 2024).

Substitutions are numbered along the chain they refer to. In names and notes the source's numbering stands.

Substrate in data set [1]: Nc1ncnc2c1ncn2[C@@H]1O[C@H](COP(=O)(O)OP(=O)(O)OP(=O)(O)O)[C@@H](O)[C@H]1O
The data set is described as follows: purified protein. It counts as biochemical, Homo sapiens. As to conditions: Tris-HCl pH 8.0, MgCl2, 37 °C; for K0.5: half maximal estimate, biphasic response, ATPS + APSK combined activity (two ATP sites).

Substrate in data set [2]: O=S(=O)(O)O
The data set is described as follows: purified protein. Particulars: fixed ATP, Tris-HCl pH 8.0, MgCl2, 37 °C, labelled compound. It counts as biochemical, Homo sapiens.

B1: COOH-terminal (aa 220-623) ATPS domain of hPAPSS1 (Homo sapiens) (protein)
chain: LQERDIVPVDASYEVKELYVPENKLHLAKTDAETLPALKINKVDMQWVQVLAEGWATPLNGFMREREYLQCLHFDCLLDGGVINLSVPIVLTATHEDKERLDGCTAFALMYEGRRVAILRNPEFFEHRKEERCARQWGTTCKNHPYIKMVMEQGDWLIGGDLQVLDRVYWNDGLDQYRLTPTELKQKFKDMNADAVFAFQLRNPVHNGHALLMQDTHKQLLERGYRRPVLLLHPLGGWTKDDDVPLMWRMKQHAAVLEEGVLNPETTVVAIFPSPMMYAGPTEVQWHCRARMVAGANFYIVGRDPAGMPHPETGKDLYEPSHGAKVLTMAPGLITLEIVPFRVAAYNKKKKRMDYYDSEHHEDFEFISGTRMRKLAREGQKPPEGFMAPKAWTVLTEYYKSLEK
notes: C-terminal ATP sulfurylase domain with linker, residues 220-623, APS kinase domain deleted; recombinant, purified
As for B1, the Km came out at 2200 µM in the data set “purified protein [1]” (fixed sulfate, ATP sulfurylase activity) and 530 µM in the data set “purified protein [2]” (ATP sulfurylase activity).

B2: hPAPSS1 (full length, residues 1-623) (Homo sapiens) (protein)
chain: MEIPGSLCKKVKLSNNAQNWGMQRATNVTYQAHHVSRNKRGQVVGTRGGFRGCTVWLTGLSGAGKTTVSMALEEYLVCHGIPCYTLDGDNIRQGLNKNLGFSPEDREENVRRIAEVAKLFADAGLVCITSFISPYTQDRNNARQIHEGASLPFFEVFVDAPLHVCEQRDVKGLYKKARAGEIKGFTGIDSEYEKPEAPELVLKTDSCDVNDCVQQVVELLQERDIVPVDASYEVKELYVPENKLHLAKTDAETLPALKINKVDMQWVQVLAEGWATPLNGFMREREYLQCLHFDCLLDGGVINLSVPIVLTATHEDKERLDGCTAFALMYEGRRVAILRNPEFFEHRKEERCARQWGTTCKNHPYIKMVMEQGDWLIGGDLQVLDRVYWNDGLDQYRLTPTELKQKFKDMNADAVFAFQLRNPVHNGHALLMQDTHKQLLERGYRRPVLLLHPLGGWTKDDDVPLMWRMKQHAAVLEEGVLNPETTVVAIFPSPMMYAGPTEVQWHCRARMVAGANFYIVGRDPAGMPHPETGKDLYEPSHGAKVLTMAPGLITLEIVPFRVAAYNKKKKRMDYYDSEHHEDFEFISGTRMRKLAREGQKPPEGFMAPKAWTVLTEYYKSLEK
notes: full length 1-623 (APSK + ATPS domains); E. coli BL21(DE3) pLys; Ni column and gel filtration
Turning to B2, the K0.5 in “purified protein [1]” is 4.3 mM. In addition, in “purified protein [2]” (ATPS + APSK combined activity), the Michaelis constant (Km) is 330 µM.

B3: hPAPSS1 (full length, residues 1-623) (Homo sapiens; N426K) (protein)
chain: B2 chain with N426K
notes: as for B2
With B3, the K0.5 in “purified protein [1]” is 3.7 mM. The Km in “purified protein [2]” (ATPS + APSK combined activity) came to 440 µM.
